Results published in patent US7052704B2, “Methods and compositions for lipidization of hydrophilic molecules” (University of Southern California, priority 1995, dated 2006).

System: C3H 10T1/2(clone 8) cells
Experiment: In vitro transformation assay (MCA-induced)
Type: cell-based
Conditions: MCA 1 μg/ml 24 hr, then conjugates 1.0 μg/ml for first three weeks
Protocol: Transformation assays were carried out using C3H 10T1/2(clone 8) cells according to the published recommendations [Reznikoff, C. A. et al. (1973) Cancer. Res. 33, 3239–3249; Reznikoff, C. A. et al. (1973) Cancer. Res. 33, 3231–3238]. Stock cultures of mycoplasma-free cells were maintained by passing 50,000 cells per 75 cm^2 flask every seven days. Using this schedule, the cells were always passed approximately 2 days before reaching confluence. The stock culture was grown in Eagle's basal medium supplemented with 10% FBS, penicillin (100 units), and streptomycin (100 μg) and used for the transformation assays at passages of 9 to 14. The cells were passed by treating the stock cells with trypsin (0.1%) in PBS for 5 min and quenching the trypsin with 5 ml of the medium. This procedure was adapted to minimize spontaneous transformation in the stock cultures and maximize the plating efficiency in the petri dishes. The FBS stock used in the cultures was pre-screened to ensure that the serum was able to support the expression and the growth of the transformed cells.
For the transformation assays, C3H 10T1/2 cells (1000/dish) were seeded into 60 mm petri dishes and allowed to grow in a humidified 5% CO2 atmosphere in Eagle's basal medium, supplemented with 10% FBS, penicillin (100 units), and streptomycin (100 μg), for 24 hr. Subsequently, the cells were initiated by treatment with 25 μl of the 3-methylcholanthrene (MCA) in acetone stock solution ([…]) to a final concentration of 1 μg/ml of MCA (5 μg/5 ml). The cells were allowed to grow in the presence of the carcinogen or solvent for 24 hr, and the medium in each dish was then replaced with fresh medium containing no carcinogen or solvent. The medium in the dishes was replaced twice per week for the first two weeks of the assay, and thereafter once a week for the remainder four weeks of the assay. In the experiments designed to determine the transformation inhibitory activity of the conjugates, the cells were maintained in the medium containing the conjugates (1 μg/ml) for the first three weeks of the assay; thereafter, the cells were maintained in medium containing no added conjugates.
Six weeks after the carcinogen treatment, the cells were inspected under a microscope for adherence to the culture dishes and were washed with PBS and then fixed in 100% methanol. The fixed monolayers were then stained with Giemsa stain. 20 dishes per group were treated in each experiment. In addition to the test groups, all the transformation assays contained at least three other groups: negative control (not treated with carcinogen or solvent), acetone control (treated with 25 μl of acetone), and positive control [treated with MCA (1 μg/ml) in 25 μl of acetone]. The transformed foci (>3 mm in diameter) in the plates were studied under a microscope and classified according to published guidelines as types I, II, or III [Landolph, J. R. (1985) Transfomatin assay of established cell lines: Mechanism and Application (ed. Kakunaga, T., and Yamasaki, H.) IARC Scientific Publications, Lyon, France pp. 185–201]. Briefly, type III foci were dense, multilayered, basophilic, areas of cell growth which stained to a deep blue color with Giemsa and had rough criss-crossed edges. Type II foci were also dense, multilayered, areas of cell growth, but were stained to a purple color with Giemsa and had smoother, more defined edges compared to Type III foci. Type I foci were not scored in the assay.
BBI, either as the free protein or in conjugated form to palmitic or oleic acid, was added to the cultures at 1.0 μg/ml for the first three weeks of the transformation assay period starting immediately after the MCA treatment. MCA-treated cells were exposed to 3-methylcholanthrene, dissolved in 25 /μl of acetone, at a concentration of 1 μg/ml for 24 hr. Acetone-treated cells were exposed to 25 μl of acetone for 24 hr only. […]

B1: BBI: hydrophilic protein which has low uptake into cells and is not orally bioavailable; used for chemoprevention (protein, UniProt P01055 40-110, looked up)
Bowman-Birk type proteinase …: DDESSKPCCDQCACTKSNPPQCRCSDMRLNSCHSACKSCICALSYPAQCFCVDITDFCYEPCKPSEDDKEN
  transformed foci in the dishes scored: no transformed foci
Scored at six weeks
  Fraction of dishes containing transformed foci: 0
  No. of dishes with transformed foci/No. of dishes: 0/20
